Consider 2 molecules from article PMC11138481 (Molecular cell, 2023).

Ends that are not written are not given here. * marks the point of attachment. Crotonyl(E) = C/C=C/C(=O)*

Test [1] concerns the target GAS41 YEATS domain (residues 11–150) (human, UniProt O95619 11-150). The experiment in a line: ITC. Background: ITC needs no label: the signal is the heat of the interaction.
Test [2] deals with GFP-GAS41 H43S protein (recombinant) (human, UniProt O95619 1-227, H43S). The experiment in a line: MST.
Chain of GFP-GAS41 H43S protein (recombinant) (O95619 whole entry H43S): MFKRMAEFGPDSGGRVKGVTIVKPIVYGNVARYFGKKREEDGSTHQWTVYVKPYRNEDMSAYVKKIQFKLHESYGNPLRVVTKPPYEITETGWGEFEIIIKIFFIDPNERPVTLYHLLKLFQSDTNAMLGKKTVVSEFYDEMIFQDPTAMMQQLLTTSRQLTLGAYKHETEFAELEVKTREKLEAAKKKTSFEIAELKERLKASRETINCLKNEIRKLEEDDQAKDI

Chain of GAS41 YEATS domain (residues 11–150) (O95619 11-150): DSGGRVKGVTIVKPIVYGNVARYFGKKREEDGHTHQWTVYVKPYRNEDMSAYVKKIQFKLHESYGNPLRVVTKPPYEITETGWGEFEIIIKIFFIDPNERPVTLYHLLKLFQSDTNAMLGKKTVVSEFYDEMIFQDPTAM

Take ATKAARK(Crotonyl(E))SAPATG [Synthesized H3 K27cr (a.a. 21-33) peptide]: the Kd – broadly, the concentration at which binding is half-saturated – in test [1] worked out at 22.9 µM. The “fold reduction in binding against GAS41 wt” value in test [2] stood at 6 fold.
For ATKAARK(Ac)SAPATG [Synthesized H3 K27ac (a.a. 21-33) peptide], in that order: 51.5 µM and approximately 2 fold.
